The target in assay [1] is human Siglec-9 (expressed on transfected Expi293 cells; also on primary human monocytes) (human) (UniProt Q9Y336).
Assay [2] has as its target human SIGLEC-9-ECD-Fc recombinant fusion protein (human) (UniProt Q9Y336). Description: Siglec-9/Ligand Blocking Assay: antibody titrated against Siglec-9-ECD-Fc, blocked binding to ligands on T47D cells, median MFI by flow cytometry; unit inferred, x axis 'Ab (nM)'.
The target is the same in assay [3]. Briefly: Ligand Displacement Assay: Siglec-9-ECD-Fc pre-bound to ligands on T47D cells, antibody titrated, remaining Siglec-9-ECD-Fc as median MFI by flow cytometry; unit inferred, x axis 'Ab (nM)'. Background: A flow cytometer gives signals particle by particle.
The target is the same in assay [4]. Briefly: column 'Displacement EC50 (nM)': ligand displacement assay, Siglec-9-ECD-Fc pre-bound to ligands on T47D cells, antibody titrated, remaining Siglec-9-ECD-Fc by flow cytometry.
Assay [5] has the same target. Briefly: column 'Blocking EC50 (nM)': ligand blocking assay, antibody pre-mixed with Siglec-9-ECD-Fc, blocked binding to Siglec-9 ligands on T47D cells, flow cytometry.
The target is the same in assay [6]. Description: Siglec-9/Ligand Blocking Assay, negative control: fitted value printed for an almost flat curve; unit inferred, x axis 'Ab (nM)'.
The target is the same in assay [7]. Description: Ligand Displacement Assay, negative control: fitted value printed for a curve that only dips at the last points; unit inferred, x axis 'Ab (nM)'.
For assay [8], the target named is T1, human SIGLEC-9-ECD-Fc recombinant fusion protein (human, UniProt Q9Y336 18-343).
T1 construct: The range starts at residue 1, so it includes the signal peptide; No cleavage site is stated; Secreted from CHOK1SV cells and purified on Protein A; also called Siglec-9-ECD-huFc; S9-ECD-Fc
T1 sequence (Q9Y336 18-343): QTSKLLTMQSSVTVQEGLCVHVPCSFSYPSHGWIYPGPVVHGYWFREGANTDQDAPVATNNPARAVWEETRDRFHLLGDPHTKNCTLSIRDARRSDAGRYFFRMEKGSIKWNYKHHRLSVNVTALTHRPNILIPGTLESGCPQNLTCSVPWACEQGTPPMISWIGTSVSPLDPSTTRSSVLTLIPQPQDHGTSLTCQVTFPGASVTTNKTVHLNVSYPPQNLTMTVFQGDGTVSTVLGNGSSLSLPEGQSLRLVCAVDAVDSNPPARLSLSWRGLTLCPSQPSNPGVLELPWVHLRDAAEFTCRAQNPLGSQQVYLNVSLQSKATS
Description: Siglec-9/Ligand Blocking Assay: antibody titrated against Siglec-9-ECD-Fc, blocked binding to ligands on T47D cells, median MFI by flow cytometry; unit inferred, x axis 'Ab (nM)'. Here is the method:
(§1) Recombinant Siglec-9-Fc was added to T47D cells in the presence of anti-Siglec-9 antibodies at increasing concentrations and binding of the complex was detected on the cell surface. […] The ability of an antibody to displace ligand binding was also determined (FIGS. 3 and 5).
(§2) Human breast cancer cell line T47D, which expresses high level of ligands for Siglec-9, was used to determine the blocking activity of anti-Siglec-9 antibodies in a cell-based assay. Two-fold serial dilutions of anti-Siglec-9 antibodies (40 nM to 40 pM) were combined with 10 nM Siglec-9-ECD-Fc in FACS buffer (PBS/2% BSA) and incubated on ice for 30 minutes. 2.5×10e4 T47D cells per well were added to round bottom 96-well tissue culture plates in FACS buffer, plates were centrifuged at 400g for 2 min, supernatant was removed and cells were re-suspended in 100 ul of the antibody-Siglec-9 complexes. After a 1 hour incubation on ice, cells were washed twice and incubated for 30 minutes with goat anti-human F(ab′)₂ fragment conjugated to AF647 (Jackson IR labs) at lug/ml in FACS buffer. After two more washes, cells were fixed in PBS/2% PFA and acquired on a Novocyte flow cytometer (ACEA biosciences). IC₅₀ values for blocking were determined based on plotting mean fluorescence in the APC channel and analysis using Prism Graphpad software.

Assay [9] deals with T1, human SIGLEC-9-ECD-Fc recombinant …. Briefly: Ligand Displacement Assay: Siglec-9-ECD-Fc pre-bound to ligands on T47D cells, antibody titrated, remaining Siglec-9-ECD-Fc as median MFI by flow cytometry; unit inferred, x axis 'Ab (nM)'. Here is the method:
as §1
(§3) T47D cells were treated with 2ug/mL S9-ECD-Fc for 1 hour on ice. After the 1 hr preincubation of S9, a titration curve of anti Siglec-9 msIgG1s were added for 1 hr incubation at +37° C. Cells were then washed to remove unbound S9. Bound S9 were detected through the human Fc using Alexa488 conjugated secondary. Levels of remaining S9 were assessed by flow cytometry”

Assay [10] shares this target. Description: bio-layer interferometry (ForteBio), antibody captured on anti-mouse sensors, Siglec-9-ECD as analyte, 25 C, 1:1 global fit. Here is the method: Antibody binding analysis was carried out by bio-layer interferometry (ForteBio). […] Antibodies were captured on anti-mouse kinetic sensors at 0.5 ug/mL; Siglec-9-ECD was used as analyte and diluted in assay buffer from 50 nM to 1.56 nM with 2x dilutions. Two-minute associations were conducted, followed by 10-minute dissociations. Results were determined relative to a control empty reference AHC sensor, and analyzed using ForteBio analysis software with 1:1 global fit parameters.
(Biolayer interferometry detects binding as a change in optical thickness at a sensor tip.)

Assay [11] deals with human Siglec-9 (expressed on transfected Expi293 cells; also on primary human monocytes) (human, UniProt Q9Y336 18-463). Description: cell-based or functional assay.
Sequence of human Siglec-9 (expressed on transfected Expi293 cells; also on primary human monocytes) (Q9Y336 18-463 limits assumed): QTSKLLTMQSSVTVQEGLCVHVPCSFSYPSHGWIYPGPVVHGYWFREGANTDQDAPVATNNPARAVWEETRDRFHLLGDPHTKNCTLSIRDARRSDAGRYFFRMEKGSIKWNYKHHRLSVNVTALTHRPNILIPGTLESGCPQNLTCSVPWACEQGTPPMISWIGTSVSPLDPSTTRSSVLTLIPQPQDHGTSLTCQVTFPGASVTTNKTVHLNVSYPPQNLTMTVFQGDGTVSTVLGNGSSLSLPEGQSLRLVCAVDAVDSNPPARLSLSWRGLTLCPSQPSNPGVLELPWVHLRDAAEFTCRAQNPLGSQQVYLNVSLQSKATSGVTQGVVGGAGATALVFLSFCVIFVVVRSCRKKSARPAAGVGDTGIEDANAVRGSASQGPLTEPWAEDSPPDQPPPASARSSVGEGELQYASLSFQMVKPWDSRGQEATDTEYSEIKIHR
Assay [12] deals with T1, human SIGLEC-9-ECD-Fc recombinant …. Description: column 'Blocking EC50 (nM)': ligand blocking assay, antibody pre-mixed with Siglec-9-ECD-Fc, blocked binding to Siglec-9 ligands on T47D cells, flow cytometry. As to the method: as §1, §2
For assay [13] the target is unchanged. Briefly: column 'Displacement EC50 (nM)': ligand displacement assay, Siglec-9-ECD-Fc pre-bound to ligands on T47D cells, antibody titrated, remaining Siglec-9-ECD-Fc by flow cytometry. As to the method:
as §1, §3

Assay [14] shares this target. Description: BLI (ForteBio Octet Red), SIGLEC-9-ECD-Fc on anti-human Fc sensors, Fab in solution, monovalent. Here is the method: (§4) Anti-human Fc sensors were coated with SIGLEC-9-ECD-Fc at a concentration of 20 μg/ml in 1XHBS+1% BSA buffer (GE Lifesciences). After a brief wash with 1XHBS+1% BSA buffer, m9A12, ch9A12 or the humanized Fabs were applied to the antigen-coated sensors. The monovalent binding association and dissociation rates were calculated by the ForteBio Octet Red analysis software.

Assay [15] has the same target. The description is as above. Here is the method:
The V-regions from the humanized Fab were re-formatted for expression as a human IgG4.
as §4
The source holds these as a separate data set.

Changes are numbered by the printed parent chain. Like-named read-outs stand apart in the source and are kept apart here.

Sequence of human SIGLEC-9-ECD-Fc recombinant fusion protein (human) (Q9Y336 18-343): as the sequence (Q9Y336 18-343) above
Sequence of human Siglec-9 (expressed on transfected Expi293 cells; also on primary human monocytes) (human) (Q9Y336 18-463 limits assumed): as the sequence (Q9Y336 18-463 limits assumed) above

The term IC50 denotes the concentration that inhibits the measured activity by half. The EC50 is the concentration at which the effect is half-maximal. The molecule “anti-Siglec-9 monoclonal antibody MAB1139 (R&D Systems)” yielded an Internalization EC50: loss of surface Siglec-9 on CD14+ monocytes in PBMC after 24 h in assay [1] of 0.165 nM. Besides, the results for the IC50 in assay [2] and in assay [3] were 4.39 nM and 2 nM, respectively. Moreover, the results for the EC50 in assay [4] and in [5] were 2 nM and 4.4 nM, respectively.
Isotype (p3) (antibody): in assay [6], the IC50 came out at 71.3 nM.
On to msIgG1 (p1) (antibody), for which the IC50 in assay [7] is 140 nM.

B1: mouse anti-Siglec-9 monoclonal antibody 9A12 (antibody, V domains shown)
VH: QVQLQQSGAELVRPGASVTLSCKASDYTFTDYEMHWVKQTPVHGLEWIGAIDPEAGGTDYNQKFKGKAILTADKSSSTAYMELRSLTSEDSAVYYCTRVWLHWGQGTTLTVSS
VL: NIVMTQSPSSLAVSAGEKVTMNCKSSQSVLYSSNQKNYLAWYQQKPGQSPKMLIYWASTRESGVPDRFTGSGSGTDFTLTISSVQSEDLAVYYCHQYLSSNTFGGGTKLEIK
notes: Mouse monoclonal antibody; also called m9A12
By Kd is commonly meant a measure of binding affinity in units of concentration. Regarding B1, the IC50 in [8] was 2.62 nM; in assay [9] it was 1.52 nM. In addition, the Kd in [10] was below 0.001 nM. The “Internalization EC50: loss of surface Siglec-9 on CD14+ monocytes in PBMC after 24 h” value in [11] came to 0.125 nM. The concentration giving a half-maximal response (EC50) in [12] is 2.62 nM; in [13] it was 1.52 nM.

B2: Tf73 Fab (Fab, V domains shown)
VH: QVQLVQSGAEVKKPGASVKVSCKASDYTFTGYEMHWVRQAPGQGLEWMGAIDPEAGGTDYAQKFQGRVTMTADTSISTAYMELSRLRSDDTAVYYCTRVWLHWGQGTLVTVSS
VL: B1 VL with N1D, S9D, A15L, K18R, S49P, T69S, V84L, S86A, L89V, G105Q
notes: also called AK643-3 / AK628-1
What is called koff is the rate constant with which the complex falls apart. In general, kon refers to the second-order rate constant of association. Regarding B2, in assay [14], the dissociation constant (Kd) is 0.575 nM, the koff is 0.000184 s⁻¹ and the kon was determined as 319000 M⁻¹ s⁻¹. For the same molecule, in assay [15], the Kd was 0.575 nM, the koff turned out to be 0.000184 s⁻¹ and the kon turned out to be 319000 M⁻¹ s⁻¹.

B3: Tf71 Fab (Fab)
chain 1: B2 VH with D26G, G31D
chain 2: B1 VL with N1D, S9D, A15L, K18R, S49P, T69S, V84L, S86A, L89V, G105Q
Consider B3, for which, in assay [14], the Kd is 0.533 nM, the koff worked out at 0.000232 s⁻¹ and the kon was 435000 M⁻¹ s⁻¹.

B4: Tf83 Fab (Fab)
chain 1: B2 VH with G31D, D52N
chain 2: B1 VL with N1D, S9D, A15L, K18R, S49P, T69S, V84L, S86A, L89V, G105Q
Consider B4, for which, in [14], the Kd stood at 9.99 nM, the koff is 0.00297 s⁻¹ and the association rate constant (kon) was determined as 298000 M⁻¹ s⁻¹.

B5: Tf84 Fab (Fab)
chain 1: B2 VH with G31D, D52N, A55S
chain 2: B1 VL with N1D, S9D, A15L, K18R, S49P, T69S, V84L, S86A, L89V, G105Q
As to B5, in assay [14], the Kd was 2.24 nM, the koff turned out to be 0.00295 s⁻¹ and the kon came to 1.32e+06 M⁻¹ s⁻¹.

B6: Tf63 Fab (Fab, V domains shown)
VH: B2 VH with G31D
VL: B1 VL with N1D, S9D, A15L, K18R, S49P, T69S, V84L, S86A, L89V, G105Q
notes: Humanized 9A12 Fab; also called AK639-12 / AK628-1
As to B6, in assay [15], the Kd was found to be 0.66 nM, the koff came to 0.00016 s⁻¹ and the kon came out at 242000 M⁻¹ s⁻¹.

These data come from patent US20250042996A1 (ALLAKOS, published 2025).
